# According to patent US6492344B1, “Syndecan enhancer element and syndecan stimulation of cellular differentiation” (Biotie Therapies Corp., priority 1993, dated 2002):
# Entries after “also recorded” stand apart in the source; their conditions may differ.
# B1: FGF-7: Keratinocyte growth factor (FGF-7 or KGF) (protein, UniProt P21781 32-194, looked up)
# Fibroblast growth factor 7: CNDMTPEQMATNVNCSSPERHTRSYDYMEGGDIRVRRLFCRTQWYLRIDKRGKVKGTQEMKNNYNIMEIRTVAVGIVAIKGVESEFYLAMNKEGKLYAKKECNEDCNFKELILENHYNTYASAKWTHNGGEMFVALNQKGIPVRGKKTKKEQKTAHFLPMAIT
# B2: FGF-4: growth factor, FGF family member (protein, UniProt P08620 31-206, looked up)
# Fibroblast growth factor 4: APTAPNGTLEAELERRWESLVALSLARLPVAAQPKEAAVQSGAGDYLLGIKRLRRLYCNVGIGFHLQALPDGRIGGAHADTRDSLLELSPVERGVVSIFGVASRFFVAMSSKGKLYGSPFFTDECTFKEILLPNNYNAYESYKYPGMFIALSKNGKTKKGNRVSPTMKVTHFLPRL
# Experiments:
# [1] = system: FGF-inducible Response Element (FiRE); assay: pFiRE CAT reporter activation by growth factors in 3T3NIH cells; format: cell-based, mouse; settings: pFiRE transfected 3T3NIH cells; 10 ng/ml growth factor (2 ng/ml TGF-β) or 5% FCS, 2 days
# Method: Each of these plasmids was transiently transfected into 3T3NIH cells, using the calcium phosphate precipitation method (Chen and Okayama, Mol. Cell Biol. 7:2745-2752 (1987)) as follows. For transient transfections NIH3T3 cells were plated at equal density on six-well plates (Falcon) two days before transfection. Plasmid DNA was transfected into cells by calcium phosphate method (Chen and Okayama, Mol. Cell Biol. 7:2745-2752 (1987)). A β-galactosidase expressing plasmid (pSV-β-galactosidase, Promega) was co-transfected with CAT constructs to monitor transfection efficiencies. Three parallel transfections were used in every assay. […] CAT activities were measured by liquid scintillation and β-galactosidase activities spectrophotometrically at 420 nm as described by Vihinen et al., J. Biol. Chem 268:17261-17269 (1993)). […]
# For the gene expression analysis the fragments of the syndecan-1 upstream region were subcloned from mouse genomic clones into the XbaI site of the pCATProm vector in which a mouse syndecan-1 promoter region (−1310 to +140) was fused to the CAT reporter gene (Vihinen et al., J. Biol. Chem. 271:12532-12541 (1996)). […] These constructs were then used to transient transfect NIH3T3 cells as described supra, and CAT activity was measured.
# Effect of Various Growth Factors on Enhancer Activation in NIH3T3 Cells. […] Radioactivity was measured using a gamma counter (Wallac).
# 3T3NIH cells = assay: 125-IdU incorporation (DNA synthesis) assay in 3T3NIH cells; format: cell-based, mouse; settings: pFiRE transfected 3T3NIH cells; 10 ng/ml growth factor (2 ng/ml TGF-β) or 5% FCS
# Excerpt: Effect of Various Growth Factors on Enhancer Activation in NIH3T3 Cells. Plasmid pFiRE was transfected into 3T3NIH cells as described, supra. The cells were starved in DMEM medium supplemented with 5% fetal calf serum to about 70% confluence. Fetal calf serum was then replaced with 2% carboxy-methyl-Sephadex eluted fetal calf serum (CMS) 12 hrs before adding the growth factors. Various growth factors in the same medium, 5% fetal calf serum (FCS) supplemented medium or a control containing the medium, without any added growth factors were incubated with the transfected cells for 2 days, and CAT activity was measured. The effect of 10 ng/ml of FGF-2, FGF-1, FGF-4, FGF-7 (KGF), EGF, IGF1, TGFα, IFNγ, and PDGF and 2 ng/ml TGF-β were tested. The human recombinant growth factors were purchased from Peprotech (FGF-1, -2, and -7), Boehringer (FGF-2) or from Calbiochem (PDGF) TGF-β was purchased from Sigma. The effect of the added growth factors and FCS on DNA synthesis was also tested by a 125-IdU incorporation assay. This cell proliferation assay was carried out by incubating cells for 4-6 hrs with 0.25 μCi/ml 5-[^125I]iodo-2′-deoxyuridine (IdU, Amersham), washed several times with PBS and solubilized in 1 M NaOH. Radioactivity was measured using a gamma counter (Wallac).
# [2] = system: FGF-inducible Response Element (FiRE); assay: FiRE / Syn Prom CAT reporter in MCA3D keratinocytes; format: cell-based; settings: MCA3D mouse keratinocytes transfected with FiRE construct
# Method: The cells used for proximal promoter constructs were 3T3 NIH, S115 (either hormone-treated or not) and nMuMG cells. For enhancer constructs we used 3T3 NIH cells grown in 2% CMS medium and MCA 3D cells grown in Ham's medium. 3T3 NIH cells were also used to test the effect of growth factors in 2% CMS medium with 10 ng/ml FGF-2 and 2ng/ml TGFβ-1. MCA 3D cells were used to test the effect of 10 ng/ml KGF.
# FiRE is Induced Selectively by FGF-7 in Keratinocytes. The ability of FiRE to enhance transcription was tested in the mouse keratinocyte cell line MCA3D (Kuliz-Martin et al., Carcinogenesis 4:1367-1377 (1983)). MCA3D cells were transfected as described supra for mouse NIH3T3 cells. Following transfection, the cells were treated with fetal calf serum, PDGF, FGF-1, FGF-2, and FGF-7 as described supra for the NIH3T3 cells.
# syndecan-1 mRNA = assay: Syndecan-1 mRNA expression in MCA3D keratinocytes; format: cell-based; settings: MCA3D mouse keratinocytes
Molecule,FiRE enhancer activation (CAT reporter activity) [1],DNA synthesis / cell proliferation (125-IdU incorporation) (3T3NIH cells),FiRE activation [2],syndecan-1 mRNA expression (syndecan-1 mRNA)
B1,did not activate the enhancer; also recorded: no significant enhancer activation; also recorded: no effect,significant increase in DNA synthesis,strongly activated FiRE,strongly induced
B2,lower effect,,,
